Results as given in the supplement of paper PMC9170038.

Test system: MS2 coat protein
Assay: apparent KD of MS2 coat protein; designed switch direction (-1 OFF switch, 1 ON switch): -1; higher = weaker reporter binding
Outline: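 Transcription of designed RNA switches on Illumina chips was done by stalled E. coli RNA polymerase. SNAP-549-labelled MS2 coat protein was then titrated in doubling steps from 0.7 or 1.5 nM to 3 µM, with steps of 0.8–1.5 h at the lowest and 10–20 min at the highest concentration. The per-design median over clusters of curve-fitted normalised fluorescence is reported as apparent KD.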

[1] = Eterna round: R95, input ligand: microRNA oligo, concentration not stated
[2] = Eterna round: R95, input ligand: FMN 200 uM
[3] = Eterna round: R95, input ligand: none

Row | Sequence | apparent KD of MS2 coat protein [1] | apparent KD of MS2 coat protein [2] | apparent KD of MS2 coat protein [3] | apparent KD of MS2 coat protein (input ligand: FMN 200 uM) | apparent KD of MS2 coat protein (input ligand: none) | apparent KD of MS2 coat protein (input ligand: microRNA oligo, concentration not stated)
1 | GUGUAGAUAGGAUAUGCGUGAGUCUAGCGAAGCUAGAUUCUACAUGAGGAUCACCCAUGUAGAAGGGUCUACAC [Fiskers Ex 2 - 26] (puzzle: Exclusion 2) | 15.9 nM |  |  |  |  | 
2 | UAUUAAACAUAGGAUAUCGAAUAAAUCAUUUAACGAGAAGGAUGAACAUGAGGAUCACCCAUGUGGUAUCAUGG [Mat - Exclusion 6 - JL Mod - D14] (puzzle: Exclusion 6) | 242 nM |  |  |  |  | 
3 | ACAGCGUGAGGAUAUACAUGAGGAUCACCCAUGUAUGGCAGGUUAUCCUGUCGUGAGUGUAGAAGGCACGCUGU [Exclusion 3 - Oddities v.5 ( A small slide from ms2 to fmn)] (puzzle: Exclusion 3) | 15.4 nM |  |  |  |  | 
4 | UAAUGCAAGCAAAGAUUCUACAUGAGGAUCACCCAUGUGCUCGUCUUAUAAAGUACUAUCACGAAAGUGAUAGUACA [Mat - Sensor v3 - turn-off var 1 - Eli Mod - D96] (puzzle: Sensor v3, turn-off variant 1) | 75.7 nM | 25.7 nM | 27.1 nM |  |  | 
5 | CUGGUCCGAGGAUAUAUUUUGUGAUACAUGAGGAUCACCCAUGUAAUAAGAUGGAAGUAAAUAGAAGGCGGACUAG [Mat - Exclusion 5 - JL mod - D47] (puzzle: Exclusion 5) | 125 nM | 69.3 nM | 150 nM |  |  | 
6 | GAUUAACAUGAGGAUCACCCAUGUGAGGAUAUUGACUUGCUCACUUUCCCAUUUGAGUCGAGAAGGCGCAUCUG [1986#22] (Eterna round: R97, puzzle: Exclusion 1) |  |  |  | 68.8 nM | 39 nM | 
7 | CGUAUGUAAGGAUAUUAGUAGUAGUCAGAAUAGACUAUUACUGAGAAGGUACAUGAGGAUCACCCAUGUUAGCG [Eli x4 4.15] (Eterna round: R97, puzzle: Exclusion 4) |  |  |  | 229 nM | 31.6 nM | 
8 | GCUUGGCGAGGAUAUACAUGAGGAUCACCCAUGUGAGAGAAAUAAGUGAGGAAGAAAAGUAGAAGGCGCUGAGG [Mat - Exclusion 3 - Mod of Salish D59] (puzzle: Exclusion 3) | 58.9 nM | 167 nM | 61 nM |  |  | 
9 | UUUAAUUUUUUUUUUUUACAAGCUUUUUGCUCGUCUUAUACAUGAGGAUCACCCAUGUAAAUGGGAGGUAAAUUAUC [JMF 71] (puzzle: Sensor v3, turn-off variant 2) | 133 nM | 80.7 nM | 113 nM |  |  | 
10 | UAAUACAAGCAAAGAUCCUACAUGAGGAUCACCCAUGUGUUCGUCUUAUAAAGUACUAUCACGAAAGUGAUAGUACA [Mat - Sensor v3 - turn-off var 1 - Eli Mod - D79] (puzzle: Sensor v3, turn-off variant 1) | 12.3 nM | 81.6 nM | 110 nM |  |  | 
11 | CCGGCAUAGGAGGAUAUAGGAGUCGAUAGACACCUAGAAGGCCUGACAUGAGGAUCACCCAUGUGUCCUACCGG [Fiskers Ex 6 - 97] (puzzle: Exclusion 6) | 12.5 nM |  |  |  |  | 
12 | UUUAAUUUUUUUUUUUUACAAGCUUUUUGCUCGUCUUAUACAUGAGGAUCACCCAUGUAGGUGAGAAAUGAAUUAUC [JMF 94] (puzzle: Sensor v3, turn-off variant 2) | 152 nM | 26.5 nM | 29.5 nM |  |  | 
13 | UUUAAUUUUUUUUUUUUACAAGCUUUUUGCUCGUCUUAUACAUGAGGAUCACCCAUGUGGGUAGGAGGUAAAUUAUC [JMF 72] (puzzle: Sensor v3, turn-off variant 2) | 50.4 nM | 32.5 nM | 35.5 nM |  |  | 
14 | AUAAUGUCAGGAUAUCAGUCGACUAGCUUCGGCUAGUCGACUGAGAAGGGACAUGAGGAUCACCCAUGUGUUUC [E4/14-A1] (Eterna round: R97, puzzle: Exclusion 4) |  |  |  | 2390 nM | 505 nM | 
15 | AAAUAGAAAGGAUAUACAGGCAUCCUUACCAGAGCGAGCUCACAUGAGGAUCACCCAUGUAGAAGGUUCAUAGC [EX2 C.17] (Eterna round: R97, puzzle: Exclusion 2) |  |  |  | 34.9 nM | 31.8 nM | 
16 | UUUUACAAGCCAGAUCCUCACAUGAGGAUCACCCAUGUGCUCGUCUGUUUUCGCACUAUCACGUUUGUGAUAGUGCU [Level Boss var2-10] (puzzle: Sensor v3, turn-off variant 1) | 12.9 nM | 162 nM | 288 nM |  |  | 
17 | ACCUUACAUGAGGAUCACCCAUGUCAGGAUAUCUCGGGCGGCCAAGGGCCGGCCGCCCAGAGAAGGGACGAGGA [Inusla] (puzzle: Exclusion 1) | 12.1 nM |  |  |  |  | 
18 | CAGUACUGAGGAUAUACAUGAGGAUCACCCAUGUGUUCCAGCUAGGAAACUGGCAAAAGUAGAAGGCAGUACUG [salish99_ex3_r3_070] (puzzle: Exclusion 3) | 21.6 nM |  |  |  |  | 

Row | Sequence | apparent KD of MS2 coat protein [1] | apparent KD of MS2 coat protein [2] | apparent KD of MS2 coat protein [3] | apparent KD of MS2 coat protein (input ligand: FMN 200 uM) | apparent KD of MS2 coat protein (input ligand: none) | apparent KD of MS2 coat protein (input ligand: microRNA oligo, concentration not stated)
19 | CUCGUGUGAGGAUAUCAACGUCAAGCGUGAGCGAGACGAGAUGAGAAGGUACAUGAGGAUCACCCAUGUGCUCA [Eternabot (Original) Solution 25] (Eterna round: R97, puzzle: Exclusion 4) |  |  |  | 83.1 nM | 20 nM | 
20 | CGUCUGUAAGGAUAUGGUAGCGUUUACAUGAGGAUCACCCAUGUUACAUGGGACUAGAGACUAGAAGGUACGAACG [EX5 #51] (Eterna round: R97, puzzle: Exclusion 5) |  |  |  | 589 nM | 2520 nM | 
21 | GGUUGGCGAGGAUAUACAUGAGGAUCACCCAUGUGAGAGAAUAAAGUGAGAAAGAAAAGUAGAAGGCGCUGACA [Mat - Exclusion 3 - Mod of Salish D51] (puzzle: Exclusion 3) | 46.9 nM | 900 nM | 63.9 nM |  |  | 
22 | UCUGCCGCCGUGAGGAUAUGCCCGAAAAAACGCGGGCAGAAGGCACAUGAGGAUCACCCAUGUCCCGCGGUUUU [salish99_bmx4_r4_136] (Eterna round: R97, puzzle: Brourd's mod of Exclusion 4) |  |  |  | 31 nM | 15.8 nM | 
23 | CCGGAAAGGGAGGAUAUAGGAGUCGAUAGACACCUAGAAGGUCUGACAUGAGGAUCACCCAUGUGUCCUACCGG [Fiskers Ex 6 - 90] (puzzle: Exclusion 6) | 19.9 nM | 20.3 nM | 19.8 nM |  |  | 
24 | GUACUGACAGGAUAUACAUGAGGAUCACCCAUGUGCCUUAAUGCUACAAAAGUAGCAAGUAGAAGGGUCUGUAC [Omei Ex3 Model Bachelor's Dilema v11] (Eterna round: R97, puzzle: Exclusion 3) |  |  |  | 79.7 nM | 16.5 nM | 
25 | CAAAAGCUAGGAUAUACAUGAGGAUCACCCAUGUCGCACUCUAGACACGCCAUACAUAGUAGAAGGAGCAAUCU [EX3 B.18] (Eterna round: R97, puzzle: Exclusion 3) |  |  |  | 21.7 nM | 17.9 nM | 
26 | AUGGGUCCUCUCGGAGCUACAUGAGGAUCACCCAUGUGUAUUGAGGAUAUCCACUGCUCAGGACGGGAGAAGGCAGUGUACUGU [Ex NG3 #87] (Eterna round: R96, puzzle: Exclusion NG 3) |  |  |  | 51.4 nM | 58.4 nM | 46.3 nM
27 | UAUGUUGUUGUGAGGAUAUACUUUGUUUGACCGUAGUAGAAGGCACAUGAGGAUCACCCAUGUAGAUUUUUGGU [JR_BME4_Sub008] (puzzle: Brourd's mod of Exclusion 4) | 9.12 nM |  |  |  |  | 
28 | AAUAACAGAGGAUAUACUAUUUUAUGUGUUUGUUAUUUUGAACAUGAGGAUCACCCAUGUAGAAGGCUGAAUGA [JMF 65] (puzzle: Exclusion 2) | 24.7 nM |  |  |  |  | 
29 | GGAUGUUAGGAGGAUAUCUGACGUCGAAAAGAAGGAGAAGGCCUGACAUGAGGAUCACCCAUGUGGUCAAAAGA [Eresinbi] (puzzle: Exclusion 6) | 110 nM | 1200 nM | 97.8 nM |  |  | 
30 | CCGGAAAUGCAGGAUAUCGUAUCGGAUACGAUACGAGAAGGGUAGACAUGAGGAUCACCCAUGUGUCCUACCGG [Fiskers Ex 6 - 50] (puzzle: Exclusion 6) | 78.6 nM | 110 nM | 101 nM |  |  | 
31 | UGAGACUGAGGAUAUACUAGCCCAUAAAGUGGGUUGUGGGUACAUGAGGAUCACCCAUGUAGAAGGCAGCCUCG [Omei Repeat Sequence v4] (Eterna round: R97, puzzle: Exclusion 2) |  |  |  | 516 nM | 75.4 nM | 
32 | GUAGAGUAAGGAUAUGUUGAAUAGGAUAGAAUGGUUAGAAAACAGAAGGUACAUGAGGAUCACCCAUGUAAUGU [Excluse me!!!! 11 - Jieux - Exclusion 4] (puzzle: Exclusion 4) | 19.1 nM | 20 nM | 17.6 nM |  |  | 
33 | CAGUACUGAGGAUAUACAUGAGGAUCACCCAUGUGUCCUAGCUAGGAAACUAGCAUUAGUAGAAGGCAGUACUG [Fiskers Ex 3 828 mod 6] (puzzle: Exclusion 3) | 22.1 nM |  |  |  |  | 
34 | GAGACACAUGAGGAUCACCCAUGUGAGGAUAUCCGAAGGACCAAAUUAAGAAUUAAAGGGAGAAGGCACAUAAA [Exclusion 1 V5] (puzzle: Exclusion 1) | 27.2 nM |  |  |  |  | 
35 | GGAAAGGUAGGAUAUACGAAGAAAAAGGGUAGAAGAAAAACACAUGAGGAUCACCCAUGUAGAAGGACCAAAGG [Mat - Exclusion 2 - Mod of my Tesla design - D2] (puzzle: Exclusion 2) | 22.1 nM | 51.4 nM | 23.4 nM |  |  | 
